These results are taken from patent US20200255508A1 (AbbVie / Abbott, published 2020).

Residue numbers refer to the chain shown, from its start. Where two headings read alike, the source gives them in different places.

The target in test [1] is T1, mouse DLL4 on the cell surface (mouse, UniProt Q9JI71 27-686).
T1 construct: whole, on cells; also called HEK293-mDLL4; mDLL4-293G
The test is described as follows: competition FACS, competitor huNotch-1.
Protocol: (§1) Notch blocking assay: Briefly, stable cell lines overexpressing cell-surface DLL4 were harvested from tissue culture flasks and re-suspended in phosphate buffered saline (PBS) containing 1% bovine serum albumin and 1 mM CaCl₂ (FACS buffer). HEK293-hDLL4 or HEK293-mDLL4 cells were dispensed into 96-well plate (v-bottom) at 1.5×10⁵ cells/well in FACS buffer. […] After washing the cells two times with FACS buffer, 50 μL of R-phycoerythrin-conjugated streptavidin (1:150 dilution in FACS buffer) (Jackson ImmunoResearch, West Grove, Pa., US, catalog no. 016-110-084) were added. Following an incubation on ice (4° C., 60 minutes), cells were washed three times and resuspended in FACS buffer. Fluorescence was measured using a Becton Dickinson FACSCalibur-HTS (Becton Dickinson, San Jose. Calif.).

The target of test [2] is T2, human DLL4 on the cell surface (human, UniProt Q9NR61 27-685).
T2 construct: whole, on cells; also called HEK293-hDLL4; hDLL4-293G
In words: competition FACS, competitor huNotch-1.
Protocol: as §1

For test [3], the target named is T1, mouse DLL4 on the cell surface. The test is described as follows: FACS on DLL4 cells.
Protocol: (§2) Stable cell lines overexpressing cell-surface DLL4 were harvested from tissue culture flasks, washed four times and resuspended in phosphate buffered saline (PBS) containing 1% bovine serum albumin and 1 mM CaCl₂ (FACS buffer), 1.5×10³ cells were incubated with antibodies at various concentrations in FACS buffer for 60 minutes on ice. Cells were washed twice and 50 μL of R-phycoerythrin-conjugated anti-rat IgG. […] Following an incubation on ice (4° C., 60 minutes), cells were washed three times and resuspended in FACS buffer. Fluorescence was measured using a Becton Dickinson FACSCalibur-HTS (Becton Dickinson, San Jose. Calif., US). Data were analyzed using Graphpad Prism software and EC₅₀ values were reported as the concentration of antibody to achieve 50% of maximal DLL4 antibodies binding to DLL4 expressing cells.
Test [4] addresses T2, human DLL4 on the cell surface. The test is described as follows: FACS on DLL4 cells.
Protocol: as §2
For test [5], the target named is T3, human DLL4-his (human, UniProt Q9NR61 27-529).
T3 construct: extracellular domain
The test is described as follows: ELISA on DLL4-his.
Protocol: (§3) After the final wash, plates were incubated with 100 μl/well ELISA substrate (Sigma # T8665). The reaction was stopped after 8 minutes at 25° C. with 100 μl/well 1N HCl and the absorbance was read at 450 nm. Data were analyzed using Graphpad Prism software and EC50 values were reported.

Test [6] concerns the target T4, mouse DLL4-his (mouse, UniProt Q9JI71 27-532).
T4 construct: extracellular domain; not shown: his tag
In words: ELISA on DLL4-his.

For test [7], the target named is T5, human DLL4 extracellular domain (human, UniProt Q9NR61 27-529).
T5 construct: extracellular domain; coated on plates in the sVEGFR1 assay; also called huDLL4 ECD; Human DLL4 ECD
The test is described as follows: competition ELISA, competitor huNotch-1.
Protocol: (§4) Plates were then washed 3 times with wash buffer (PBS, 0.05% Tween-20) and blocked with 200 μl/well blocking buffer (D-PBS, 1% BSA, 1 mM CaCl₂, 0.05% Tween-20) for 1 hour at 25° C. […] Assay plates were washed after blocking, and incubated with DLL4/antibody mixtures (100 μl/well, 1 hour at 25° C. with shaking). […] After a final wash, plates were developed using 100 μl/well substrate (TMB Sigma # T8665), and the reaction was stopped after an 8-minute incubation at 25° C. (for muDLL4 ELISA) and after 20 minute incubation at 25° C. (for huDLL4 ELISA) using 100 μl/well 1N HCl, and the absorbance was read at 450 nm.

The target in test [8] is T6, mouse DLL4 extracellular domain (mouse, UniProt Q9JI71 27-532).
T6 construct: extracellular domain; also called muDLL4 ECD; Mouse DLL4 ECD
T6 sequence (Q9JI71 27-532): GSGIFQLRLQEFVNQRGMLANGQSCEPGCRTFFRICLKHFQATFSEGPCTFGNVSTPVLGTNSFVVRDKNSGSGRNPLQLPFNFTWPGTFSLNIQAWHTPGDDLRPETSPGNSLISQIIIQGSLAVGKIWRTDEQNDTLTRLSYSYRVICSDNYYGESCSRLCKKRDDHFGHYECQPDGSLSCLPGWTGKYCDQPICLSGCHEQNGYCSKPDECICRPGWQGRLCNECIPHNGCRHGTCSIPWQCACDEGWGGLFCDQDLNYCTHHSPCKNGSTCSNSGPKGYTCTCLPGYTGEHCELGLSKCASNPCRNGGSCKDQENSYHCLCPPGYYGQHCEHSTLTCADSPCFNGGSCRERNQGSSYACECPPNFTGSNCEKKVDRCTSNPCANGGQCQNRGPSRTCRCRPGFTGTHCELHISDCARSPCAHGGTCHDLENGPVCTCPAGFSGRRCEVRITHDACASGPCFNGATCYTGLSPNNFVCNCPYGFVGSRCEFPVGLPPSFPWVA
The test is described as follows: competition ELISA, competitor huNotch-1.
Protocol: as §4

Test [9] addresses T5, human DLL4 extracellular domain. The test is described as follows: Biacore SPR.
Protocol: (§5) The BIACORE® surface plasmon resonance assay (Biacore, Inc., Piscataway, N.J., US) determines the affinity of antibodies with kinetic measurements of on-rate and off-rate constants. Binding of DLL4 antibodies to a purified recombinant DLL4 extracellular domain is determined by surface plasmon resonance-based measurements with a Biacore® instrument (either a Biacore 2000, Biacore 3000, or Biacore T100, GE Healthcare, Piscataway, N.J. US) using running buffer HBS-EPB (10 mM HEPES [pH 7.4], 150 mM NaCl, 3 mM EDTA, 0.1 mg/ml BSA and 0.005% surfactant P20) at 25° C. For example, approximately 9000 RU of goat anti-human Fc specific polyclonal antibody (Thermo Fisher Scientific Inc., Rockford, Ill., US) diluted in 10 mM sodium acetate (pH 4.5) is directly immobilized across a CM5 research grade biosensor chip using a standard amine coupling kit according to manufacturer's instructions and procedures at 25 μg/ml. Unreacted moieties on the biosensor surface are blocked with ethanolamine. For kinetic analysis, rate equations derived from the 1:1 Langmuir binding model are fitted simultaneously to multiple antigen injections (using global fit analysis) with the use of Scrubber 2 (BioLogic Software). […] The equilibrium dissociation constant KD (M) of the reaction between antibodies and the target antigen is then calculated from the kinetic rate constants by the following formula: KD=Koff/Kₒₙ. Binding is recorded as a function of time and kinetic rate constants are calculated. In this assay, on-rates as fast as 10⁶ M⁻¹s⁻¹ and off-rates as slow as 10⁻⁶ s⁻¹ can be measured.
The target in test [10] is T6, mouse DLL4 extracellular domain. The test is described as follows: Biacore SPR.
Protocol: as §5
For test [11], the target named is T3, human DLL4-his. In words: ELISA on DLL4-his. This is another data set of the same source.
Protocol: as §3
For test [12], the target named is T4, mouse DLL4-his. In words: ELISA on DLL4-his. The source holds these as a separate data set.
Protocol: as §3
Test [13] deals with T5, human DLL4 extracellular domain. The test is described as follows: competition ELISA, competitor huNotch-1. The source holds these as a separate data set.
Protocol: as §4
Test [14] addresses T6, mouse DLL4 extracellular domain. In words: competition ELISA, competitor huNotch-1. The source holds these as a separate data set.
Protocol: as §4
The target of test [15] is T1, mouse DLL4 on the cell surface. In words: competition FACS, competitor huNotch-1. This is another data set of the same source.
Protocol: as §1
Test [16] deals with T2, human DLL4 on the cell surface. The test is described as follows: competition FACS, competitor huNotch-1. This is another data set of the same source.
Protocol: as §1
For test [17], the target named is T5, human DLL4 extracellular domain. The test is described as follows: Biacore SPR. The source holds these as a separate data set.
Protocol: as §5
The target in test [18] is T6, mouse DLL4 extracellular domain. The test is described as follows: Biacore SPR. The source holds these as a separate data set.
Protocol: as §5
Test [19] deals with T1, mouse DLL4 on the cell surface. The test is described as follows: FACS on DLL4 cells. This is another data set of the same source.
Protocol: as §2
In test [20] the target is T2, human DLL4 on the cell surface. The test is described as follows: FACS on DLL4 cells. The source holds these as a separate data set.
Protocol: as §2
Test [21] addresses T5, human DLL4 extracellular domain. In words: capture ELISA.
Protocol: (§6) ELISA plates were washed 3 times with wash buffer (PBS, 0.05% Tween-20) and then blocked with 200 ml/well blocking buffer (D-PBS, 1% BSA, 1 mM CaCl₂, 0.05% Tween-20) for 1 hour at 25° C. Plates were washed 3 times and incubated with 100 μl/well DLL4 antibodies (0.0001-100 nM, 10-fold serial dilution in blocking buffer) for 1 hour at 25° C., and then washed again 3 times. […] The reaction was stopped after 2 minutes at 25° C. with 100 μl/well 2 N H2SO₄ and the absorbance was read at 450 nm. Data were analyzed using Graphpad Prism software and EC₅₀ values were reported.
Test [22] has the same target. In words: competition ELISA, competitor huNotch-1. This is another data set of the same source.
Protocol: as §4
In test [23] the target is T2, human DLL4 on the cell surface. The test is described as follows: competition FACS, competitor huNotch-1. The source holds these as a separate data set.
Protocol: as §1
Test [24] concerns the target T5, human DLL4 extracellular domain. The test is described as follows: cell-based or functional assay.
The target of test [25] is T2, human DLL4 on the cell surface. In words: cell-based or functional assay.
The target is the same in test [26]. In words: FACS on DLL4 cells. This is another data set of the same source.
Protocol: as §2
The target in test [27] is T7, rat DLL4 extracellular domain (rat, UniProt D3ZHH1 28-530).
T7 construct: extracellular domain; also called ratDLL4 ECD
T7 sequence (D3ZHH1 28-530): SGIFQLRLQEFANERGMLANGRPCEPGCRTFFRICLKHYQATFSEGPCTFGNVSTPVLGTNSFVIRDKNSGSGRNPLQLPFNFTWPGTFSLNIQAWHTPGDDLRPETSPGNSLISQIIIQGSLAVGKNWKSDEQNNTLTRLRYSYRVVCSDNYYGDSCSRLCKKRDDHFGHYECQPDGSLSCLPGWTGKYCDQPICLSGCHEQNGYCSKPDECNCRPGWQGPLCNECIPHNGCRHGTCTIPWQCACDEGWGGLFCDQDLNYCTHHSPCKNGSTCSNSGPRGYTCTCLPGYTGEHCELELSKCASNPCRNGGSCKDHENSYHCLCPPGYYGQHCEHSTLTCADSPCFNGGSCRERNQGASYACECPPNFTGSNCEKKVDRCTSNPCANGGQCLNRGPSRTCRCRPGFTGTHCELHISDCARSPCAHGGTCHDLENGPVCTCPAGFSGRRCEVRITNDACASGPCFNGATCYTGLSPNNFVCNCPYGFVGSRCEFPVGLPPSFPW
The test is described as follows: Biacore SPR.
Protocol: (§7) Binding of DLL4 antibodies to a purified recombinant DLL4 extracellular domain is determined by surface plasmon resonance-based measurements with a Biacore® instrument (either a Biacore 2000, Biacore 3000, or Biacore T100, GE Healthcare, Piscataway, N.J. US) using running buffer HBS-EPB (10 mM HEPES [pH 7.4], 150 mM NaCl, 3 mM EDTA, 0.1 mg/ml BSA and 0.005% surfactant P20) at 25° C. For example, approximately 9000 RU of goat anti-human Fc specific polyclonal antibody (Thermo Fisher Scientific Inc., Rockford, Ill., US) diluted in 10 mM sodium acetate (pH 4.5) is directly immobilized across a CM5 research grade biosensor chip using a standard amine coupling kit according to manufacturer's instructions and procedures at 25 μg/ml. Unreacted moieties on the biosensor surface are blocked with ethanolamine. For kinetic analysis, rate equations derived from the 1:1 Langmuir binding model are fitted simultaneously to multiple antigen injections (using global fit analysis) with the use of Scrubber 2 (BioLogic Software). […] The equilibrium dissociation constant KD (M) of the reaction between antibodies and the target antigen is then calculated from the kinetic rate constants by the following formula: KD=Koff/Kₒₙ. Binding is recorded as a function of time and kinetic rate constants are calculated. In this assay, on-rates as fast as 10⁶ M⁻¹s⁻¹ and off-rates as slow as 10⁻⁶ s⁻¹ can be measured.

The target of test [28] is T5, human DLL4 extracellular domain. The test is described as follows: Biacore SPR. This is another data set of the same source.
Protocol: as §7
The target in test [29] is T6, mouse DLL4 extracellular domain. The test is described as follows: Biacore SPR. This is another data set of the same source.
Protocol: as §7
Test [30] deals with T1, mouse DLL4 on the cell surface. In words: competition FACS, competitor huNotch-1. The source holds these as a separate data set.
Protocol: as §1
In test [31] the target is T2, human DLL4 on the cell surface. In words: competition FACS, competitor huNotch-1. This is another data set of the same source.
Protocol: as §1
The target in test [32] is T5, human DLL4 extracellular domain. The test is described as follows: capture ELISA. The source holds these as a separate data set.
Protocol: as §6
Test [33] concerns the target T6, mouse DLL4 extracellular domain. In words: capture ELISA.
Protocol: as §6
Test [34] concerns the target T5, human DLL4 extracellular domain. The test is described as follows: competition ELISA, competitor huNotch-1. This is another data set of the same source.
Protocol: as §4
Test [35] concerns the target T6, mouse DLL4 extracellular domain. The test is described as follows: competition ELISA, competitor huNotch-1. The source holds these as a separate data set.
Protocol: as §4
For test [36], the target named is T1, mouse DLL4 on the cell surface. The test is described as follows: FACS on DLL4 cells. The source holds these as a separate data set.
Test [37] concerns the target T2, human DLL4 on the cell surface. In words: FACS on DLL4 cells. The source holds these as a separate data set.
Test [38] has the same target. In words: cell-based or functional assay. The source holds these as a separate data set.
The target of test [39] is T5, human DLL4 extracellular domain. The test is described as follows: Biacore SPR. The source holds these as a separate data set.
Protocol: as §7
Test [40] concerns the target T6, mouse DLL4 extracellular domain. The test is described as follows: Biacore SPR. The source holds these as a separate data set.
Protocol: as §7

T4 sequence (Q9JI71 27-532): as the sequence (Q9JI71 27-532) above
T1 sequence (Q9JI71 27-686): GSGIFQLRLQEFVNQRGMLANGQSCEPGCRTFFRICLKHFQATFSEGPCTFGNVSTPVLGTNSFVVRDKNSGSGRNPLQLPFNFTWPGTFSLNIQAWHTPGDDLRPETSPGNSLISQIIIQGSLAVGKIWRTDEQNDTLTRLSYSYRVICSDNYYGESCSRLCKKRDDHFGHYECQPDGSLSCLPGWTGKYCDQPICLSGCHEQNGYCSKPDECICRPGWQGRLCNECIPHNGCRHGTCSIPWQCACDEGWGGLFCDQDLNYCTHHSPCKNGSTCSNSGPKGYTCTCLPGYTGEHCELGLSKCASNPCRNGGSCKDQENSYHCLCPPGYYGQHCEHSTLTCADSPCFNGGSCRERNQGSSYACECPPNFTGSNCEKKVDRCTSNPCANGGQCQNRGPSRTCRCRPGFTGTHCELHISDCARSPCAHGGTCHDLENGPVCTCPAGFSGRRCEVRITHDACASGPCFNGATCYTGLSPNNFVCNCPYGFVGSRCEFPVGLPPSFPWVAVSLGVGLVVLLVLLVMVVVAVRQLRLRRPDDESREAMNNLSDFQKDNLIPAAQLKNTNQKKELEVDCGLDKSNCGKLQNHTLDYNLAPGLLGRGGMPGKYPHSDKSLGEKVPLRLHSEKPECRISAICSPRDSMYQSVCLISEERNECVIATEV

B1: E9-SE7 (antibody, V domains shown)
VH: EVQLVESGGGLVQPGGSLRLSCAVSGGSISSSSYYWGWIRQAPGKGLEWIGDIYYTGSTYYNPSLKSRVTISVDTSKNSFYLQMNSLRAEDTAVYYCAREDVILRGGSDYWGQGTLVTVSS
VL: EYVLTQSPDFQSVTPKEKVTITCSGQRLGDKYASWYQQKPDQSPKLVIYEDSKRPSGVPSRFSGSNSGDDATLTINSLEAEDAATYYCQAWDRDTGVFGQGTKVEIKR
notes: full-length human IgG1
On to B1, for which the IC50 came out at 1.94 nM in [1], 7.81 nM in test [2], 2.4 nM in test [7] and 2.4 nM in test [8]. The Kd in test [3] amounted to 2.24 nM; in test [4], 2.28 nM; in test [9], 1.69 nM; in [10], 16.2 nM. For the same molecule, the EC50 with human DLL4-his [5] and in the test with mouse DLL4-his [6] was 0.17 nM each time.

B2: E9-FR2 (antibody, V domains shown)
VH: EVTLRESGPALVKPTQTLTLTCTVSGGSISSSSYYWGWIRQPPGKGLEWIGDIYYTGSTYYNPSLKSRVTISVDTSKNQFVLTMTNMDPVDTATYYCAREDVILRGGSDYWGQGTTVTVSS
VL: DYVLTQSPDSLAVSLGERATINCSGQRLGDKYASWYQQKPGQSPKLVIYEDSKRPSGIPDRFSGSNSGDDATLTISSLQAEDVAVYYCQAWDRDTGVFGGGTKVEIKR
notes: full-length human IgG1
Consider B2, for which the EC50 with human DLL4-his [11] turned out to be 0.105 nM; with mouse DLL4-his [12], 0.125 nM. The IC50 was 1.52 nM in test [13], 4.35 nM in test [14], 1.07 nM in test [15] and 3.03 nM in test [16]. The Kd in [17] worked out at 0.31 nM; in test [18] it was 0.69 nM; in test [19], 3.57 nM; in test [20], 6.2 nM.

B3: A10 (antibody, IgG1, V domains shown)
VH: EVQLLESGGGLVKSGGSLRLSCAASGFTFRSHWMSWVRQAPGKGLEWVAIISYDGSNKYSADSVKGRFTISRDNSKNTLYLQLNSLRAEDTAVYYCAKAGGGNVGFDIWGQGTMVTVSS
VL: LPVLTQPPSVSVSPGQTASITCSADKLGTKYVSWYQQKPGQSPVLVIYQDAKRPSGIPERFSGSNSGNTATLTISGTQTMDEADYLCQSWDRSDVVFGGGTKVTVL
notes: also called anti-DLL4 PROfusion antibody A10
B3: the EC50 in test [21] worked out at 0.17 nM; in test [26], 0.93 nM. Also, the figures for the concentration for half-maximal inhibition (IC50) in [22] and in [23] were 2.6 nM and 4.4 nM, respectively. Also, the “sVEGFR1 Inhibition (IC50, nM) DLL4 ECD/EaHy cells, hu” value in test [24] amounted to 1.5 nM. In test [25], the “Inhibition of Notch activation via huDLL4 cells, coculture (IC50, nM)” value (from here on “Inhibition … coculture (IC50, nM)”) was 7.3 nM. In addition, the binding result in [27] and in [29] was “no binding (tested: 900 nM DLL4)” in each case. In addition, in test [28], binding was put at a Kd of 6.68 nM. In test [28], this molecule yielded a koff of 0.00015 s⁻¹. The association rate constant (kon) in [28] stood at 22000 M⁻¹ s⁻¹.

B4: E9-FR1 (antibody, V domains shown)
VH: EVQLVQSGTEVKKPGESLKISCKVSGGSISSSSYYWGWIRQMPGKGLEWIGDIYYTGSTYYNPSLKSQVTISVDTSFNTFFLQWSSLKASDTAMYYCAREDVILRGGSDYWGQGTMVTVSS
VL: EYVLTQSPATLSVSPGERATLSCSGQRLGDKYASWYQQKPGQSPRLVIYEDSKRPSDIPARFSGSNSGDEATLTISSLQSEDFAVYYCQAWDRDTGVFGQGTRLEIKR
notes: full-length human IgG1
B4: the EC50 in the test with human DLL4-his [11] was 0.11 nM; with mouse DLL4-his [12] it was 0.13 nM. Also, the IC50 in [13] came to 1.54 nM; in test [14] it was 3.35 nM; in test [15] it was 0.98 nM; in [16], 1.57 nM. Besides, the dissociation constant (Kd) in [17] was found to be 0.72 nM; in test [18] it was 1.6 nM; in test [19], 2.51 nM; in [20], 4 nM.

B5: E9.19 (antibody, V domains shown)
VH: EVQLQESGPGLVKPSETLSLTCTVSGGSISSSSYYWGWIRQPPGKGLEWIGDIYYTGSTYYNPSLKSRVTISVDTSKNQFSLKLSSVTAADTAVYYCARFDVSLGGGSDTWGQGTLVTVSS
VL: SYELTQPPSVSVSPGQTASITCSGQRLGDKYASWYQQKPGQSPVLVIYEDSKRPSGIPERFSGSNSGDTATLTISGTQPMDEADYYCQAWDRDTGVFGYGTKVTVL
notes: also called DLL4-E9-19 hIgG1/L
As for B5, the IC50 in [30] turned out to be 0.44 nM; in test [31] it was 4.9 nM; in test [34], 1.8 nM; in test [35], 1.3 nM. For the same molecule, the EC50 in test [32] was 0.17 nM; in test [33] it was 0.17 nM; in [36] it was 0.54 nM; in [37], 2.79 nM. For the same molecule, the “Inhibition … coculture (IC50, nM)” value in test [38] is 4.4 nM. Also, the Kd in test [39] was found to be 0.69 nM; in test [40] it was 3.07 nM. Also, the koff was found to be 5.17e-05 s⁻¹ in [39] and 0.000206 s⁻¹ in [40]. For the same molecule, the kon in test [39] turned out to be 74900 M⁻¹ s⁻¹; in test [40] it was 67000 M⁻¹ s⁻¹.

B6: E9.2B (antibody, V domains shown)
VH: B5 VH with S33N, Y54N, T56N, S58N, F100E, D101A, S103A, S108A, T110D
VL: B5 VL with Q25E, R26G, A32V, K52T, R92S, D93E, Y99S
In the case of B6, the IC50 in [30] turned out to be 0.34 nM; in test [31] it was 2.63 nM; in [34], 2.3 nM; in [35] it was 2.8 nM. Also, the half-maximal effective concentration (EC50) was 0.16 nM in test [32], 0.16 nM in test [33], 0.35 nM in test [36] and 1.78 nM in test [37]. Moreover, the “Inhibition … coculture (IC50, nM)” value in test [38] turned out to be 2.1 nM. In test [39], this molecule yielded a Kd of 0.02 nM. Further, the dissociation rate constant (koff) in [39] turned out to be 7.9e-06 s⁻¹. For the same molecule, the on-rate (kon) in test [39] turned out to be 356000 M⁻¹ s⁻¹.

B7: E9.71 (antibody, V domains shown)
VH: B5 VH with F100Q, D101A, V102L, S103A, L104M, T110K
VL: B5 VL
notes: also called DLL4-E9-71 hIgG1/L
B7: the IC50 in test [30] turned out to be 0.24 nM; in test [31], 3.22 nM; in test [34], 2 nM; in test [35], 1.3 nM. The EC50 in test [32] stood at 0.16 nM; in [33], 0.17 nM; in test [36], 0.32 nM; in test [37], 1.82 nM. Also, in test [38], the “Inhibition … coculture (IC50, nM)” value stood at 2.1 nM. Further, the Kd in test [39] was determined as 0.91 nM; in [40], 6.08 nM. The koff in test [39] was 3.51e-05 s⁻¹; in [40], 0.000216 s⁻¹. Also, the kon in test [39] was determined as 38800 M⁻¹ s⁻¹; in test [40], 35500 M⁻¹ s⁻¹.
